Consider four molecules from patent publication US20250277037A1 (UNIVERSITY OF UTAH RESEARCH FOUNDATION, published 2025).

In test [1] the target is mouse FcγRIV on RAW 264.7 macrophage cells (mouse). Put plainly: competition, flow cytometry on RAW 264.7 cells; 25 and 250 µg/mL, not concentration-dependent; competitor PE anti-mouse FcγRIV (9E9). Background: In flow cytometry, cells or beads pass a laser one at a time.
Test [2] shares this target. Put plainly: competition by flow cytometry on RAW 264.7 cells: preincubation with the antibody at 4 °C for 30 min, then staining with PE anti-mouse FcγRIV (clone 9E9); inhibition relative to cells without antibody.
Test [3] has the same target. The test is described as follows: flow cytometry, Alexa-647-labelled antibody at 4 µg/mL on RAW 264.7 cells, 4 °C 30 min (medium control 188.3).
The target of test [4] is mouse PD-1 (programmed death-1, CD279) on EL4 cells (mouse) (UniProt Q02242). Put plainly: flow cytometry on PD-1+ EL4 cells, incubation on ice (4 °C) for 30 min, detection with PE anti-mouse IgG2a; medium control without antibody given as 70.0.
mouse PD-1 (programmed death-1, CD279) on EL4 cells (mouse), sequence (Q02242 25-288): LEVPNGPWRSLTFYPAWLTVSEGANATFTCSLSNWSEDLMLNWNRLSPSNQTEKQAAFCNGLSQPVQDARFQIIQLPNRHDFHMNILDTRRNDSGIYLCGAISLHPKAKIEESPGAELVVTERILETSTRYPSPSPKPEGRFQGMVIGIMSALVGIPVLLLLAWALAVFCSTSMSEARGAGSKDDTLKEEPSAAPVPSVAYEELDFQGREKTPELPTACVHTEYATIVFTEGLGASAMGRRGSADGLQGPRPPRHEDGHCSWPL
Test [5] has as its target T1, mouse FcγRIV on RAW 264.7 macrophage cells (mouse, UniProt A0A0B4J1G0 21-249).
T1 construct: also called RAW 264.7 cells
T1 sequence: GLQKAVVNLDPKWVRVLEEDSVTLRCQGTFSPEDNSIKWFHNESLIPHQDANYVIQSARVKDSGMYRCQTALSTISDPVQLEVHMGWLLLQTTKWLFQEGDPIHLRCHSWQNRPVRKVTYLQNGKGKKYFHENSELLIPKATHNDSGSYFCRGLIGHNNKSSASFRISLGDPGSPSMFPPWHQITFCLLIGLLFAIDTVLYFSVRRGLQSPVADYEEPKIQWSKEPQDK
The test is described as follows: flow cytometry, Alexa-647-labelled antibody at 4 µg/mL on RAW 264.7 cells, 4 °C 30 min; reference: cells in the medium control. On the procedure: ADCP was the next mechanism that was investigated. Before evaluating D-αPD-1-mediated ADCP by macrophages, the binding between D-αPD-1 and macrophages was investigated since the binding is the prerequisite of ADCP. Here, RAW 264.7 cells were incubated with Alexa-647-labeled D-αPD-1, isotype control, or the medium control. Then, the bound antibodies were analyzed by flow cytometry (FIG. 5A).

“B-αPD-1 (anti-mouse PD-1 blocking antibody, clone RMP1-14, a rat IgG)”: the percent inhibition of anti-mouse FcγRIV antibody binding in test [1] is 10%. In test [2], this molecule displayed an Inhibition (%) at 25 µg/mL of 10.5% and an Inhibition (%) at 250 µg/mL of 6.7%.

In test [1], goat IgG control (antibody) returned a percent inhibition of anti-mouse FcγRIV antibody binding of 10%. In test [2], this molecule came in with an Inhibition (%) at 25 µg/mL of 4% and an Inhibition (%) at 250 µg/mL of 4.3%.

For the molecule mouse IgG2a isotype control (antibody), in test [3], the MFI turned out to be 213 MFI. In addition, in test [4], the MFI at 0.1 µg/mL amounted to 95.4, the MFI at 1 µg/mL is 125 and the MFI at 10 µg/mL is 433.

B1: D-αPD-1 (depleting anti-mouse PD-1 antibody; RMP1-14 variable domains on mouse IgG2a heavy and mouse κ light constant domains) (antibody)
heavy: EVQLQESGPGLVKPSQSLSLTCSVTGYSITSSYRWNWIRKFPGNRLEWMGYINSAGISNYNPSLKRRISITRDTSKNQFFLQVNSVTTEDAATYYCARSDNMGTTPFTYWGQGTLVTVSSAKTTAPSVYPLAPVCGDTTGSSVTLGCLVKGYFPEPVTLTWNSGSLSSGVHTFPAVLQSDLYTLSSSVTVTSSTWPSQSITCNVAHPASSTKVDKKIEPRGPTIKPCPPCKCPAPNLLGGPSVFIFPPKIKDVLMISLSPIVTCVVVDVSEDDPDVQISWFVNNVEVHTAQTQTHREDYNSTLRVVSALPIQHQDWMSGKEFKCKVNNKDLPAPIERTISKPKGSVRAPQVYVLPPPEEEMTKKQVTLTCMVTDFMPEDIYVEWTNNGKTELNYKNTEPVLDSDGSYFMYSKLRVEKKNWVERNSYSCSVVHEGLHNHHTTKSFSRTPGK
light: DIVMTQGTLPNPVPSGESVSITCRSSKSLLYSDGKTYLNWYLQRPGQSPQLLIYWMSTRASGVSDRFSGSGSGTDFTLKISGVEAEDVGIYYCQQGLEFPTFGGGTKLELKRADAAPTVSIFPPSSEQLTSGGASVVCFLNNFYPKDINVKWKIDGSERQNGVLNSWTDQDSKDSTYSMSSTLTLTKDEYERHNSYTCEATHKTSTSPIVKSFNRNEC
notes: also called anti-αPD-1 antibody; anti-PD-1 antibody 1
For B1, the “fold MFI over medium control” value in test [5] was approximately 3 fold.
